This is an account of results in patent US20180111972A1 (Stanford University, published 2018).

Where a chain is given by its changes, count along the chain named. Numbers in names are those of the source. Like-named read-outs stand apart in the source and are kept apart here.

For assay [1], the target named is T1, soluble PDGFRβ (Fc or His format not stated for the experiment) (human, UniProt P09619 33-532).
T1 construct: extracellular domain
Description: yeast surface display, flow cytometry dot plot: soluble receptor bound (FL1) against surface expression (FL2); receptor concentration not printed [Cont.]. (In general: In flow cytometry, cells or beads pass a laser one at a time.)

Assay [2] deals with T2, soluble VEGFR2 (Fc or His format not stated for the experiment) (human, UniProt P35968 20-764).
T2 construct: extracellular domain
The description is as above.

Assay [3] deals with T2, soluble VEGFR2 (Fc or His format not …). Description: yeast surface display, flow cytometry dot plot: soluble receptor bound (FL1) against surface expression (FL2); receptor concentration not given.
The target in assay [4] is T3, PDGFRβ-His (residues 1-314 of PDGFR-β with C-terminal hexahistidine tag) (human, UniProt P09619 33-314).
T3 construct: range 1-314; Monovalent form, expressed in FreeStyle 293-F cells; also called PDGRβ-His; PDGFR-His
The assay is described as follows: yeast surface display titration, flow cytometry. The method, then: (§1) Cells were incubated in large enough volumes to avoid ligand depletion and appropriate time to reach equilibrium. During the last hour of incubation, yeast were incubated with 1:250 dilution of chicken anti-c-Myc (Invitrogen) in PBSA. […] Yeast were washed, pelleted, and resuspended in PBSA immediately before analysis by flow cytometry using BD FACSCalibur or BD Accuri C6. Flow cytometry data were analyzed using FlowJo (v7.6.1 and v10, Treestar) or BD Accuri C6 software. Statistical analysis was performed using GraphPad Prism 6.

Assay [5] has as its target T4, VEGFR2-His (residues 1-764 of VEGFR2, Ig-like domains 1-7, with hexahistidine tag) (human, UniProt P35968 20-764).
T4 construct: range 1-764; Monomeric form, expressed in FreeStyle 293-F cells; also called VEGFR-His
Description: yeast surface display titration, flow cytometry. The method, then: as §1

The target of assay [6] is T4, VEGFR2-His (residues 1-764 of VEGFR2, …). Description: yeast surface display, flow cytometry equilibrium titration of VEGFR2-His, normalized fluorescence. The method, then:
as §1

Assay [7] addresses T3, PDGFRβ-His (residues 1-314 of PDGFR-β …). Description: yeast surface display, flow cytometry equilibrium titration of PDGFRβ-His (panel 'PDGFR-His'), normalized fluorescence. The method, then: as §1
Assay [8] shares this target. Description: yeast surface display titration, flow cytometry. The method, then:
as §1
This is another data set of the same source.

In assay [9] the target is T4, VEGFR2-His (residues 1-764 of VEGFR2, …). Description: yeast surface display titration, flow cytometry. The method, then: as §1
This is another data set of the same source.

Assay [10] deals with T5, PDGFRβ-Fc (residues 1-314 of PDGFR-β fused to the Fc region of mouse IgG2a) (human; mouse, UniProt P09619 33-314).
T5 construct: range 1-314; Expressed in FreeStyle 293-F cells; also called PDGRβ-Fc; PDGFR-Fc; not shown: Fc region of mouse IgG2a
Description: yeast surface display titration, flow cytometry; PDGFRβ-Fc (bivalent). The method, then: as §1

Assay [11] addresses T3, PDGFRβ-His (residues 1-314 of PDGFR-β …). Description: yeast surface display titration, flow cytometry; PDGFRβ-His (monovalent). The method, then: We tested the monovalent version of PDGFR (PDGRβ-His) to remove any avidity effects that may affect the measurements.
as §1

Assay [12] has the same target. Description: yeast surface display, flow cytometry titration of PDGFRβ-His. The method, then: as §1
Assay [13] has as its target T1, soluble PDGFRβ (Fc or His format not …). The assay is described as follows: yeast surface display titration; table under the panel 'PDGFR binding', Fc or His form not given.
The target is the same in assay [14]. Description: yeast surface display, flow cytometry titration of soluble receptor; panel 'PDGFR binding', Fc or His form not given.
The target in the next assay is T6, VEGFR2-Fc (R&D Systems) (human, UniProt P35968 20-764).
T6 construct: extracellular domain; Bought reagent; also called VEGFR-Fc; not shown: Fc part, detected with anti-human-IgG (Fc specific)
The assay is described as follows: yeast surface display, flow cytometry titration of VEGFR2-Fc. The method, then: as §1

Assay [15] has as its target T5, PDGFRβ-Fc (residues 1-314 of PDGFR-β …). The assay is described as follows: yeast surface display, flow cytometry titration of PDGFRβ-Fc. The method, then:
as §1

Assay [16] has as its target PDGFRβ on DiscoveRx PathHunter U2OS PDGFRβ reporter cells (UniProt P09619 33-1106, limits assumed). Description: cell-based or functional assay.
Assay [17] deals with T7, human VEGFR on human umbilical vein endothelial cells (HUVECs) (human, UniProt P35968 20-1356).
T7 construct: The phosphorylation blots on these cells detect VEGFR2
The assay is described as follows: flow cytometry on HUVECs, soluble ligand titrated 3 h at 4 C, anti-FLAG-PE. The method, then: (§2) To test binding to VEGFR, human umbilical vein endothelial cells (HUVECs) and murine angiosarcoma endothelial cells (SVR) were used.
(§3) Cell-binding assay. Varying concentrations of scPDGF, scVEGF, and PDGF/VEGF ligands were incubated with 25,000 PDGFR- or VEGFR-expressing cells in binding buffer (20 mM Tris pH 7.5 with 1 mM MgCl₂, 1 mM MnCl₂, 2 mM CaCl₂, 100 mM NaCl, and 1 mg/ml BSA) for 5 hr (BJ-5ta, NIH/3T3) or 3 hr (HUVEC, SVR) at 4° C. Cells were washed and pelleted, then incubated with 1:100 R-PE-conjugated anti-FLAG antibody (Prozyme) for 15 min on ice. Cells were washed, pelleted, and resuspended in binding buffer immediately before analysis by flow cytometry using BD Accuri C6. Flow cytometry data were analyzed using BD Accuri C6 software, and statistical analysis was performed using GraphPad Prism 6.

Assay [18] addresses T7, human VEGFR on human umbilical vein …. The assay is described as follows: flow cytometry titration of the soluble FLAG-tagged protein on HUVECs, anti-FLAG detection. The method, then:
as §2, §3

T5 sequence (P09619 33-314 limits assumed, form in doubt): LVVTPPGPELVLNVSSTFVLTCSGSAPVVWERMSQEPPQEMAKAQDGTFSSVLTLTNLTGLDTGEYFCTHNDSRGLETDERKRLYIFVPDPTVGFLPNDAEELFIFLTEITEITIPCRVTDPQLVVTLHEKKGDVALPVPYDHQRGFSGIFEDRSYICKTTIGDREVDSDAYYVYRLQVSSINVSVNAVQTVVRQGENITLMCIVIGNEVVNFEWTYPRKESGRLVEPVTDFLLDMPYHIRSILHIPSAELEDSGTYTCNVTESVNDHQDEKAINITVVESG
T1 sequence (P09619 33-532): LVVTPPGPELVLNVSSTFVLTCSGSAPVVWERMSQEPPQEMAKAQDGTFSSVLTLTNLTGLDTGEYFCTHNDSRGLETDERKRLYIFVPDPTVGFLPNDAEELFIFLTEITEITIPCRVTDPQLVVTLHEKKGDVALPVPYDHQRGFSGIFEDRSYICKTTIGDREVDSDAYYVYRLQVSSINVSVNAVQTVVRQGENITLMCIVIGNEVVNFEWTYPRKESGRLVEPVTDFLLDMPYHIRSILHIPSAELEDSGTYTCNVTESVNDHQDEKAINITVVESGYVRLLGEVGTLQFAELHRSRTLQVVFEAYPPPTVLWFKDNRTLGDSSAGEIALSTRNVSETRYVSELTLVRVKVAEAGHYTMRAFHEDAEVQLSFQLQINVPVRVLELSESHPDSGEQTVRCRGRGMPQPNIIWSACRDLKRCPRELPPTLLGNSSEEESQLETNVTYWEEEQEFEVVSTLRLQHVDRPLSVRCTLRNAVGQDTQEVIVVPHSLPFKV
T2 sequence (P35968 20-764): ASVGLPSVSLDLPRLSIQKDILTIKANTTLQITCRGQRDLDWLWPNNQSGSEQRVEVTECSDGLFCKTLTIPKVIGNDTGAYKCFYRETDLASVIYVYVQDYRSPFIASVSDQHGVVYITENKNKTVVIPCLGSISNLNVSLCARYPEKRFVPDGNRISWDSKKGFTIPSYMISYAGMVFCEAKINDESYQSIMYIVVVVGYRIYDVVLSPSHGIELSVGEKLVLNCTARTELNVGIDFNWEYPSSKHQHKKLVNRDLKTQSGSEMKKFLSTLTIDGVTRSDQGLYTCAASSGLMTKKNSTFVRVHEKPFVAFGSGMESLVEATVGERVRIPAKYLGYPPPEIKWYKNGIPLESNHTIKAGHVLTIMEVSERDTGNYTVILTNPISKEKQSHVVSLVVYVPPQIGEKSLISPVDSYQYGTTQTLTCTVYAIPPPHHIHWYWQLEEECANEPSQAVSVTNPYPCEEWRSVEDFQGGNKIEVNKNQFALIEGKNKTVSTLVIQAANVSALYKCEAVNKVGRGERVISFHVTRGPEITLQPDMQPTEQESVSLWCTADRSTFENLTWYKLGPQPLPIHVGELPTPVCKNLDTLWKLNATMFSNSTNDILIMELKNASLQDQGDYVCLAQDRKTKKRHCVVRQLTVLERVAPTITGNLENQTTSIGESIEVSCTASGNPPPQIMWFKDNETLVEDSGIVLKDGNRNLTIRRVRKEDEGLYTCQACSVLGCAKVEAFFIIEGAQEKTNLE
T3 sequence (P09619 other isoform, or with tags, fused parts or gaps limits assumed, form in doubt): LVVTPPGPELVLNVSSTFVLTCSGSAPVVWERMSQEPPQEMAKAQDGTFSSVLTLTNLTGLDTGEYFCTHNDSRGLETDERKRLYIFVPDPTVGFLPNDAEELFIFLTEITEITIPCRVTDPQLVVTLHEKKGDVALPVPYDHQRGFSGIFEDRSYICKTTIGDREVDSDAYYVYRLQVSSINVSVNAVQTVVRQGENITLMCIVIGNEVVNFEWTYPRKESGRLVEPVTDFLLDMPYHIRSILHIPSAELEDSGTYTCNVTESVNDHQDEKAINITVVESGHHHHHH
T4 sequence (P35968 other isoform, or with tags, fused parts or gaps limits assumed, form in doubt): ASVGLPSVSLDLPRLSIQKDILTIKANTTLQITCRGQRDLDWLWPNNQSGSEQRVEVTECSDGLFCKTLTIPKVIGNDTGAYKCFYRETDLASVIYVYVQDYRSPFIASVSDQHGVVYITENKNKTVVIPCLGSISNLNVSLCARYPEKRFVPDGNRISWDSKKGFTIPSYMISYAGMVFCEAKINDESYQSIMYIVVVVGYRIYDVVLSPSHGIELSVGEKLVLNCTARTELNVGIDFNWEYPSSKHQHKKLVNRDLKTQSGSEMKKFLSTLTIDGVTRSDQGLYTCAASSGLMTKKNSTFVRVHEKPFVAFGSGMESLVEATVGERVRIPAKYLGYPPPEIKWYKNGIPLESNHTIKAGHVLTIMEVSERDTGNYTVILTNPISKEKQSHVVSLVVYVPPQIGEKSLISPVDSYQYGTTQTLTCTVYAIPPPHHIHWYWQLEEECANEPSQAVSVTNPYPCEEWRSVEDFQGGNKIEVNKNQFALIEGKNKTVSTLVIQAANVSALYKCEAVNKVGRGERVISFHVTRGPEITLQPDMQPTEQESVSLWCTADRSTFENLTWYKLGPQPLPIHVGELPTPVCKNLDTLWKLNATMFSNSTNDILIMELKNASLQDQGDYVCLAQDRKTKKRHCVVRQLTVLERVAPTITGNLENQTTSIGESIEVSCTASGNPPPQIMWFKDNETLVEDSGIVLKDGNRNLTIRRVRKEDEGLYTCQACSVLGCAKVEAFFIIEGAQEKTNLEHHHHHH
T6 sequence (P35968 20-764): as the sequence (P35968 20-764) above
T7 sequence (P35968 20-1356 limits assumed): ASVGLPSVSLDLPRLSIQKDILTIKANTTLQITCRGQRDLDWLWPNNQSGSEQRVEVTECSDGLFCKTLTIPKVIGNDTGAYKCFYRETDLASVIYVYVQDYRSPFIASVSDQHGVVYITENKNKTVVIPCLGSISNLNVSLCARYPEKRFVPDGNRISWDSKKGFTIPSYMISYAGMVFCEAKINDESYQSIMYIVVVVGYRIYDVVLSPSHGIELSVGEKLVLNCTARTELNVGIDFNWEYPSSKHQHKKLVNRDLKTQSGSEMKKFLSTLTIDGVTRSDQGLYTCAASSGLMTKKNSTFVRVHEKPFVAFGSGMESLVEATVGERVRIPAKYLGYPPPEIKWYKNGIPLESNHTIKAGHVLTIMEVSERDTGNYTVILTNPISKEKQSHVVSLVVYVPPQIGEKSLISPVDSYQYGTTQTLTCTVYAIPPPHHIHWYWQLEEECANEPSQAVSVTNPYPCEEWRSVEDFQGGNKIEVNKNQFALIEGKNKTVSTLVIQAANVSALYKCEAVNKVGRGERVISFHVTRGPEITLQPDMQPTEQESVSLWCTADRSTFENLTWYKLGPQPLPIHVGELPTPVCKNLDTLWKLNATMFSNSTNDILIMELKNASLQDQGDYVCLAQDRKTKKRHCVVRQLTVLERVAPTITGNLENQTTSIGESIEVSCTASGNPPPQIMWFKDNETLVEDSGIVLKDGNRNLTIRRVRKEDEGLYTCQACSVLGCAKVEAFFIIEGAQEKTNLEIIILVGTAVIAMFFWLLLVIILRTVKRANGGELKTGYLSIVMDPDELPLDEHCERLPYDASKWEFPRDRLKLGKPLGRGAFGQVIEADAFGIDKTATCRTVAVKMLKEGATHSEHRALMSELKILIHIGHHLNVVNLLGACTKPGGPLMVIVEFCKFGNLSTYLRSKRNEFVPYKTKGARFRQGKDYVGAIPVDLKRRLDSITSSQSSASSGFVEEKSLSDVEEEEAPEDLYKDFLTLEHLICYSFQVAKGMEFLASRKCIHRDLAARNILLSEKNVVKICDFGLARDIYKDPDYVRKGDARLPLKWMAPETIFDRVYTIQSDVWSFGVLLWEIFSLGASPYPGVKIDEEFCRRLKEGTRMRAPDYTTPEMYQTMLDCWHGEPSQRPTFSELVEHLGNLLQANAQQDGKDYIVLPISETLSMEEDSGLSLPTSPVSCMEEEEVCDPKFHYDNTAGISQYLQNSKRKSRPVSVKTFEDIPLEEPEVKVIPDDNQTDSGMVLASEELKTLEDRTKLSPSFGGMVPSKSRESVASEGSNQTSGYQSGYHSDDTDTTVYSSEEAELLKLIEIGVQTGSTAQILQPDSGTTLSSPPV
PDGFRβ on DiscoveRx PathHunter U2OS PDGFRβ reporter cells, sequence (P09619 33-1106 limits assumed): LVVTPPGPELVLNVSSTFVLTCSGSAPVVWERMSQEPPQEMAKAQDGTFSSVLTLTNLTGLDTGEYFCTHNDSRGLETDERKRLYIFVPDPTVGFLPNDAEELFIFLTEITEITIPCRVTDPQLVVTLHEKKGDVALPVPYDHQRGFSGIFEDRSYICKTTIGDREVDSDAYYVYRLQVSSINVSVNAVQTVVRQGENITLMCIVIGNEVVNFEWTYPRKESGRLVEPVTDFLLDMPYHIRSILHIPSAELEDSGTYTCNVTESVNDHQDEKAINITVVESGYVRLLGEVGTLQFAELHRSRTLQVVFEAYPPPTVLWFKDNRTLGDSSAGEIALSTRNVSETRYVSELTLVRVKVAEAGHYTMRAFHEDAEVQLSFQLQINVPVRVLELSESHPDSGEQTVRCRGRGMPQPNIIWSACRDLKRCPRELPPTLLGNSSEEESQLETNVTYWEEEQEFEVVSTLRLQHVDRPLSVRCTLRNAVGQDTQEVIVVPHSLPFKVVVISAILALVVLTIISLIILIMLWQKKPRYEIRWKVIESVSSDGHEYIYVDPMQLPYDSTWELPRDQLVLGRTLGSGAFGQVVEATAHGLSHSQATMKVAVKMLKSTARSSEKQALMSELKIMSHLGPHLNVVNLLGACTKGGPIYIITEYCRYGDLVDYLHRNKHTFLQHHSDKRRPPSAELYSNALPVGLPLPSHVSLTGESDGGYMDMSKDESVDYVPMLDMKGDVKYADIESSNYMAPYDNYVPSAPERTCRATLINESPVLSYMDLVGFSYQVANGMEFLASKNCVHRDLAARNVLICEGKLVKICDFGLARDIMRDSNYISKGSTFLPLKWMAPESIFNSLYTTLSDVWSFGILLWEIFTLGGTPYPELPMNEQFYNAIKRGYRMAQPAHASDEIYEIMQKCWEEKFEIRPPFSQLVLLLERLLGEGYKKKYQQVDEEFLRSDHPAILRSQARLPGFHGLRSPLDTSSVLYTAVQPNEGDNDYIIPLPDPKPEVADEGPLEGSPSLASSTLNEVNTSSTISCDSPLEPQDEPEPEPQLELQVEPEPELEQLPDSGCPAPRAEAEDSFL

B1: PV3 PDGF/VEGF hybrid construct, yeast-displayed (designed binder)
chain: IAEPAMIAECKTRTEVVDIFQEYPDEIEYIFKPSCVPLMRCSGCCNNRNVQCRPTEESNITMQIMRIKPHQGQHIGEMSFLQHLACKCETVAAGSTSGSGKSSEGKGEVVKFMDVYQRSYCHPIETLFEISRRLIDRTNANFLVWPPCVEVQRCGGCCNDEGLECVPTQVQLRPVQVRKIEIVRKKPIFKKATVTLEDHNKCECRPKKD
notes: only PV1
Take B1: the binding result in assay [1] and in [2] was “no binding” throughout.

B2: PV7 PDGF/VEGF hybrid construct, yeast-displayed (designed binder)
chain: B1 chain with T14E, E15T, V16L, L84N, A85K, E125T, T126E, L127V, N200L, K201A
notes: the text names only PV6
Consider B2, for which the binding result in [3] is reported as “binds”.

B3: PV5 PDGF/VEGF hybrid construct, yeast-displayed (designed binder)
chain: B1 chain with V17F, D18E, F128V, E129D
notes: only PV1
As for B3, the binding result in [1] and in [2] was “no binding” throughout.

B4: PV8 PDGF/VEGF hybrid construct, yeast-displayed (designed binder)
chain: B1 chain with R13I, T14E, E15T, V16L, I124R, E125T, T126E, L127V
notes: the text names only PV6
Regarding B4, the binding result in assay [3] is “binds”.

B5: PV4 PDGF/VEGF hybrid construct, yeast-displayed (designed binder)
chain: B1 chain with V17F, F128V
notes: only PV1
For B5, the binding result in assay [1] and in [2] was “no binding” throughout.

B6: PVGS, yeast-displayed (designed binder)
chain: IAEPAMIAECHPIETLVDILQEYPDEIGYIFKPSCVPLMRCGGCCNNRNVQCRPTEESNITMQIMRIKPHRGQHIGEMSFLQHNKCRCETVAAGGGGSGGGGSGGGGSGGGGSEVVKFMDVYQRSYCKTRTEVFEISRRLIDATNANFLVWPPCVEVQRCSGCCNHEGLECVPTQVQLRPVQVRKIEFVRKKPIFKKATVTLEDHLACECRPKKD
As for B6, the values for the Kd in [4] and in assay [5] were 0.25 nM and 1.1 nM, respectively. For the same molecule, the 50% effective concentration (EC50 (read off the curve)) in assay [6] was roughly 1 nM; in assay [7], roughly 0.3 nM.

B7: PV6 PDGF/VEGF chimera, yeast-displayed (designed binder)
chain: IAEPAMIAECHPIETLVDIFQEYPDEIEYIFKPSCVPLMRCGGCCNNRNVQCRPTEESNITMQIMRIKPHQGQHIGEMSFLQHNKCKCETVAAGSTSGSGKSSEGKGEVVKFMDVYQRSYCKTRTEVFEISRRLIDRTNANFLVWPPCVEVQRCSGCCNDEGLECVPTQVQLRPVQVRKIEIVRKKPIFKKATVTLEDHLACKCRPKKD
In the case of B7, the Kd is 270 nM in assay [8]; 230 nM in assay [9]; 0.099 nM in assay [10]; 140 nM in assay [11]; 140 nM in [13]. Moreover, the concentration for a half-maximal effect (EC50 (read off the curve)) in assay [12] and in [14] was roughly 100 nM throughout.

B8: V5-5, yeast-displayed variant from the Vshuf library (designed binder)
chain: B7 chain with M6V, F20L, E28G, Q71R, D160H, K203E, D209V
On to B8, for which the binding result with VEGFR2-Fc (R&D Systems) is listed as “binds”.

B9: PV6 I182F variant, yeast-displayed (designed binder)
chain: B7 chain with I182F, K203E
notes: Clone from the PDGFR sorts of the error-prone library made from PV6; also called PV I182F
With B9, the Kd is 0.067 nM in [10] and 2.5 nM in assay [11]. For the same molecule, the “EC50 (read off the curve)” value in assay [15] is roughly 0.07 nM; in assay [12], roughly 3 nM.

B10: PVAM-S (PV R32A), yeast-displayed (designed binder)
chain: B7 chain with F20L, E28G, Q71R, K87R, R137A, D160H, I182F, K203E
notes: PVAM with R137A (R32A in PDGF-B numbering); also called R137A variant
On to B10, for which the Kd is 0.34 nM in assay [4] and 1 nM in assay [5]. Besides, the “EC50 (read off the curve)” value in assay [6] is roughly 1 nM.

B11: V3-3, yeast-displayed variant from the Vshuf library (designed binder)
chain: B7 chain with M6V, F20L, E28G, Q71R, D160H, K203E
For B11, the binding result in the assay with VEGFR2-Fc (R&D Systems) is reported as “binds”.

B12: PV6 K87R variant, yeast-displayed (designed binder)
chain: B7 chain with K87R
notes: Clone from the PDGFR sorts of the error-prone library made from PV6; also called PV K87R
B12: the Kd in assay [10] is 0.049 nM; in [11], 6.4 nM. In addition, the entries for the “EC50 (read off the curve)” value in [15] and in assay [12] were roughly 0.05 nM and roughly 6 nM, respectively.

B13: PVAM-S (PV R32A), soluble, FLAG and hexahistidine tags (designed binder)
chain: DYKDDDDKIAEPAMIAECHPIETLVDILQEYPDEIGYIFKPSCVPLMRCGGCCNNRNVQCRPTEESNITMQIMRIKPHRGQHIGEMSFLQHNKCRCETVAAGSTSGSGKSSEGKGEVVKFMDVYQRSYCKTRTEVFEISRRLIDATNANFLVWPPCVEVQRCSGCCNHEGLECVPTQVQLRPVQVRKIEFVRKKPIFKKATVTLEDHLACECRPKKDHHHHHH
notes: Secreted from S. cerevisiae YVH10 and treated with Endo Hf
Regarding B13, the “IC50 of inhibition of stimulation by 0.5 nM PDGF-BB, PathHunter PDGFRβ reporter cells” value in assay [16] turned out to be 1.4 nM. The same molecule yielded a Kd in [17] of 0.53 nM. Besides, in assay [18], the 50% effective concentration (EC50 (read off the curve)) is roughly 0.7 nM.

A word on the EC50 (read off the curve): it is the concentration giving half of the maximal effect. Read a high EC50 (read off the curve) as weaker potency.
